The subject of test [1] is human Mo-DCs. Kind of test: Flow cytometry of cell surface markers on treated, LPS-matured Mo-DCs. The test is classed as cell-based. More on the design: key to HLA-DR / CD40 / CD83 / CD86 / CD14 / CD1a / CCR7: (−) negligible; (+) low; (++) moderate; (+++) high. Here is the method:
Peripheral blood mononuclear cells (PBMCs) were obtained from buffy coat preparations belonging to healthy donors from the Blood and Tissue Bank (Barcelona, Spain) after Ficoll-Paque™ density centrifugation (GE Healthcare Bio-Sciences AB; Uppsala, Sweden). Monocytes were purified by two different methods: 1) Cells were plated at 1×10^6 cells/ml in 60 mm culture plates (Corning, Spain) in RPMI without serum and allowed to adhere for 2 h at 37° C. in 5% CO2. The non-adherent cells were removed by washing in PBS. […] 2) Cells were purified using colloidal super-paramagnetic microbeads conjugated with monoclonal mouse anti-human CD14 antibodies (MACS, Miltenyi Biotec, Auburn, Calif., or EasySep® Positive Selection Cocktail, StemCell Technologies, Grenoble, France). The purity of CD14^+ cells was tested by CD14 staining and flow cytometry analysis (>90% CD14^+ cells). Monocyte-derived DCs (Mo-DCs) were generated supplementing the monocyte cultures with complete RPMI 1640 medium plus GM-CSF (800 UI/ml) and IL-4 (500 UI/ml) (both from Gentaur, Kampenhout, Belgium) at day 0 and day 3 of culture. For DC maturation, at day 5 iDCs were further stimulated for 48 h with 5 μg/ml LPS (Escherichia coli 055.B5, Sigma L2880, Copenhagen, Denmark).
Cell surface phenotypes were analyzed using the following monoclonal antibodies: FITC-conjugated anti-HLA-DR (Immu-357), FITC-conjugated anti-CD83 (HB15a), FITC-conjugated anti-CD14 (RMO52), PE-conjugated anti-CD40 (MAB89), PE-conjugated anti-CD1a (BL6), PE-conjugated anti-CD80 (MAB104), PE-conjugated anti-CD86 (HA5.2B7) (all from Beckman-Coulter), Alexa Fluor 488-conjugated anti-CCR7 (TG8/CCR7, Biolegend, San Diego, Calif.), and the respective isotype controls from the same commercial sources. After washing with PBS, cells were subsequently stained with 3 μl MoAb/10^5 cells in 100 μl of FACS buffer (PBS containing 1% BSA and 0.1% sodium azide) for 20 min at room temp. Stained cells were analysed using a FACScalibur (Becton Dickinson). Mo-DCs were gated according to forward scatter (FSC) and side scatter (SSC) parameters. The results were analysed using CellQuestPro software (Becton Dickinson).
Both the different C4BP isoforms (α7β1, α7β0 and α6β0), and Factor H were added at 2, 5 and 10 μg/ml throughout Mo-DC differentiation, maturation, or both. Namely, for the differentiation assays the proteins were added at day 0 and replenished at day 3. For the maturation assays the proteins were added at day 5, either alone or combined with LPS. Finally, for the differentiation plus maturation assays the proteins were added at days 0, 3 and 5 (at the last time point, combined with LPS).

Test [2] deals with human Mo-DCs. Nature of the test: Chemotaxis transwell assay towards CCL21. More on the design: key to Chemotaxis (CCL21): (−) negligible; (+) low; (++) moderate; (+++) high. The settings on record: for migration of LPS-matured Mo-DCs towards the chemokine CCL21: transwell, 2 h. In kind it is cell-based. How it is done: Mo-DCs differentiated and matured (LPS for 48 h) in presence of the C4BP isoforms α7β1, α7β0, or Factor H, were tested for migration toward the CCL21 chemokine using transwell assays. Briefly, the lower chambers of transwell plates (polycarbonate filters of 8.0 μm pore size; Costar, Corning, N.Y.) were filled with 400 μl of complete RPMI with or without CCL21 (200 ng/ml). A total of 1×10^5 DCs in 100 μl of complete RPMI were added into the upper chamber, and cells were incubated at 37° C. for 2 h. Cells migrated into the lower chambers were harvested and counted with a FACScalibur flow cytometer acquiring events for a fixed time period of 2 min using CellQuest software (Becton Dickinson). The migration assays for all stimulation conditions were performed in duplicate wells. Values are given as percentage of migrated cells relative to the untreated, mDCs (100%).

In another test the test system is NSG immunodeficient mice. Kind of test: Human xeno-graft-versus-host disease (xeno-GvHD) model. The test is classed as in vivo. The settings on record: co-transfer or late infusion of treated monocyte-derived DCs (5×10^5/mouse) with human PBMCs; versus PBMCs alone. From the text: We assessed the in vivo tolerogenic or regulatory capacity of C4BP(β^−)-treated or Factor H-treated monocyte-derived DCs in a human xeno-graft-versus-host disease (xeno-GvHD) model (King et al. (2009) Clin. Exp. Immunol. 157: 104-118). Intravenous injection of human peripheral blood mononuclear cells (PBMCs; 10×10^6/mouse) induced xeno-GvHD in NSG immunodeficient mice (The Jackson Laboratory) (8-12 weeks of age) (median survival time 30-40 days).

The test system of another test is immature Mo-DCs. Nature of the test: Endocytic activity (DQ-OVA uptake). More on the design: key: (−) negligible; (+) low; (++) moderate; (+++) high. In kind it is cell-based, human. As to conditions: functional assay. How it is done: To measure the phagocytic activity of iDCs, 2×10^5 cells/ml were resuspended in 100 μl of PBS and incubated with 4 μl of BODIPY FL-conjugated DQ-Ovalbumin (1 mg/ml, DQ-OVA, Molecular Probes, Leiden, Netherlands) at 37° C. or at 0° C. for 15 min. The incubations were stopped by adding 1 ml of cold FACS buffer. The cells were washed two times with cold FACS buffer and their fluorescence analyzed using a FACScalibur flow cytometer (Becton-Dickinson).

For a further test, the system named is CD3+ T lymphocytes. Kind of test: Determination of CD4+ CD127low/negative CD25high Foxp3+ T cells. As to conditions: T cells stimulated 6 days with treated, LPS-matured DCs. The test is classed as cell-based, human. How it is done: CD3^+ T lymphocytes were purified from mononuclear cells by negative selection using an EasySep® Human T Cell Enrichment Kit (StemCell Technologies) following the manufacturer's instructions. Purity was >95% in all experiments. Enriched T cells were plated (10^5 cells/well) in 96-well round-bottom plates. […] Stained cells were analysed using a FACSCanto II (Becton Dickinson) and the results were analysed using FlowJo software (Tree Star, Inc, OR, USA).

Where [3] appears, read: surface marker, treated and LPS-induced DCs.
The mark [4] stands for this setting: treated throughout differentiation and maturation, LPS-matured.

Data on two molecules can be found in patent publication US10106589B2, “Compositions and methods for immunomodulation” (FUNDACIO INSTITUT D'INVESTIGACIO BIOMEDICA DE BELLVITGE …, priority 2011, dated 2018).

B1: C4BP α7β1: major C4BP isoform, 7 identical α-chains and 1 β-chain, purified from pooled human plasma (protein, UniProt P04003 49-597; P20851 18-252, looked up)
C4b-binding protein alpha …: NCGPPPTLSFAAPMDITLTETRFKTGTTLKYTCLPGYVRSHSTQTLTCNSDGEWVYNTFCIYKRCRHPGELRNGQVEIKTDLSFGSQIEFSCSEGFFLIGSTTSRCEVQDRGVGWSHPLPQCEIVKCKPPPDIRNGRHSGEENFYAYGFSVTYSCDPRFSLLGHASISCTVENETIGVWRPSPPTCEKITCRKPDVSHGEMVSGFGPIYNYKDTIVFKCQKGFVLRGSSVIHCDADSKWNPSPPACEPNSCINLPDIPHASWETYPRPTKEDVYVVGTVLRYRCHPGYKPTTDEPTTVICQKNLRWTPYQGCEALCCPEPKLNNGEITQHRKSRPANHCVYFYGDEISFSCHETSRFSAICQGDGTWSPRTPSCGDICNFPPKIAHGHYKQSSSYSFFKEEIIYECDKGYILVGQAKLSCSYSHWSAPAPQCKALCRKPELVNGRLSVDKDQYVEPENVTIQCDSGYGVVGPQSITCSGNRTWYPEVPKCEWETPEGCEQVLTGKRLMQCLPNPEDVKMALEVYKLSLEIEQLELQRDSARQSTLDKEL
C4b-binding protein beta chain: SDAEHCPELPPVDNSIFVAKEVEGQILGTYVCIKGYHLVGKKTLFCNASKEWDNTTTECRLGHCPDPVLVNGEFSSSGPVNVSDKITFMCNDHYILKGSNRSQCLEDHTWAPPFPICKSRDCDPPGNPVHGYFEGNNFTLGSTISYYCEDRYYLVGVQEQQCVDGEWSSALPVCKLIQEAPKPECEKALLAFQESKNLCEAMENFMQQLKESGMTMEELKYSLELKKAELKAKLL
Take B1: in the test on human Mo-DCs [1] (treated throughout differentiation and maturation, LPS-matured, vs untreated mDC), the “expression of surface markers (CD14, HLA-DR, CD40, CD80, CD83, CD86, CD1a)” value was “no effect”. Further, the “migration of LPS-matured Mo-DCs towards the chemokine CCL21” value in the test on human Mo-DCs [2] is “maximal migration”. For the same molecule, the survival time entry in the test on NSG immunodeficient mice is “no significant protection”.

B2: C4BP (β^−): C4BP isoforms lacking beta chain: C4BP (α7β0) or C4BP (α6β0) (protein, UniProt P04003 49-597, looked up)
C4b-binding protein alpha …: B1 C4b-binding protein alpha …
Consider B2, for which the “surface receptor CCR7 on Mo-DCs” value in the test with human Mo-DCs [1] (flow cytometry (MFI), LPS-matured) is “consistent down-regulation”. For the same molecule, in the test on human Mo-DCs [1] (setting [3]), the CCR7 entry is recorded as “++”, the CD1a entry is “+”, the CD14 result is given as “+” and the CD40 entry is “++”. Moreover, in the test on human Mo-DCs [1] (setting [3]), the CD83 result is “+”, the CD86 result was “+” and the HLA-DR entry is given as “+++”. Further, in the test on human Mo-DCs [1] (setting [4]), the CD40 expression result was “unaltered” and the HLA-DR expression entry is reported as “unaltered”. The “Endocytosis (DQ-OVA)” value with immature Mo-DCs is on record as “+”. Besides, the “Chemotaxis (CCL21)” value in the test with human Mo-DCs [2] (functional assay, treated and LPS-induced DCs) is on record as “−”. The “migration of LPS-matured Mo-DCs towards the chemokine CCL21” value in the test on human Mo-DCs [2] is given as “halted the migration”. Besides, the “percentage of CD4+Foxp3+ and CD25^high, CD127^low/negative cells” value in the test on CD3+ T lymphocytes is “significant increase”. For the same molecule, the survival time result in the test with NSG immunodeficient mice is reported as “significantly prolonged survival time”.
